Source: patent publication US20240317834A1, “COMPOSITIONS AND METHODS FOR NEUROLOGICAL DISEASES” (CODA BIOTHERAPEUTICS, INC., priority 2020, published 2024)

Test system: Lenti-X 293T cells
Assay: YFP fluorescence quenching anion reporter plate reader assay of engineered receptors stimulated with acetylcholine or a non-native ligand
Type: cell-based
Outline: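 YFP quench was followed for about 1 min 43 s after ligand delivered in iodide-based ECS, pH 7.2. Values are end-of-read fluorescence (last 10 s) divided by the pre-ligand baseline (15 s). Cells were LX293T, transfected with receptor DNA a day before the assay.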

B1: CODA337: engineered chimeric LGIC receptor, L131N in SEQ ID NO: 33 (protein)
chain: MRCSPGGVWLALAASLLHVSLQGEFQRKLYKELVKNYNPLERPVANDSQPLTVYFSLSLLQIMDVDEKNQVLTTNIWLQMSWTDHYLQWNVSEYPGVKTVRFPDGQIWKPDILLYNSADERFDATFHTNVNVNSSGHCQYLPPGIFKSSCPMDLKNFPMDVQTCKLKFGSWSYGGWSLDLQMQEADISGYIPNGEWDLVGIPGKRSERFYECCKEPYPDVTFTVTMRRRMGYYLIQMYIPSLLIVILSWISFWINMDAAPARVGLGITTVLTMTTQSSGSRASLPKVSYVKAIDIWMAVCLLFVFSALLEYAAVNFVSRQHKELLRFRRKRRHHKSPMLNLFQEDEAGEGRFNFSAYGMGPACLQAKDGISVKGANNSNTTNPPPAPSKSPEEMRKLFIQRAKKIDKISRIGFPMAFLIFNMFYWIIYKIVRREDVHNQ
modifications: synthetic sequence of chimeric LGIC
With B1 the “YFP fluorescence quenching using CNL001” value (1 nM CNL001, first column) was 76.917%, the “YFP fluorescence quenching using CNL001” value (1 nM CNL001, second column) was 79.554% and the “YFP fluorescence quenching using TC-5619/Bradanicline” value (3 nM brd) was 71.02%. The “YFP fluorescence quenching using Varenicline” value (3 nM var, first column) was 3.093, the “YFP fluorescence quenching using Varenicline” value (3 nM var, second column) was 12.327 and the “YFP fluorescence quenching using CNL001” value (10 nM CNL001, first column) was 79.479%. For the same molecule, the “YFP fluorescence quenching using CNL001” value (10 nM CNL001, second column) was 79.506%, the “YFP fluorescence quenching using TC-5619/Bradanicline” value (30 nM brd) was 78.43% and the “YFP fluorescence quenching using Facinicline” value (30 nM fac) was 82.25. The “YFP fluorescence quenching using Varenicline” value (30 nM var, first column) was 77.097, the “YFP fluorescence quenching using Varenicline” value (30 nM var, second column) was 77.653 and the “YFP fluorescence quenching using CNL001” value (50 nM CNL001, first column) was 81.465%. For the same molecule, the “YFP fluorescence quenching using CNL001” value (50 nM CNL001, second column) was 81.297%, the “YFP fluorescence quenching using ABT-126” value (50 nM abt) was −11.64% and the “YFP fluorescence quenching using CNL001” value (100 nM CNL001, first column) was 82.619%. For the same molecule, the “YFP fluorescence quenching using CNL001” value (100 nM CNL001, second column) was 81.722%, the “YFP fluorescence quenching using CNL002” value (100 nM CNL002) was 76.37% and the “YFP fluorescence quenching using ABT-126” value (100 nM abt) was 34.79%. For the same molecule, the “YFP fluorescence quenching using AZD-0328” value (100 nM azd0328) was 82.1%, the “YFP fluorescence quenching using ABT-126” value (300 nM abt) was 60.08% and the “YFP fluorescence quenching using AZD-0328” value (300 nM azd0328) was 82.52%. For the same molecule, the “YFP fluorescence quenching using TC-5619/Bradanicline” value (300 nM brd) was 77.12%, the “YFP fluorescence quenching using Facinicline” value (300 nM fac) was 83.59 and the “YFP fluorescence quenching using Varenicline” value (300 nM var, first column) was 79.446. For the same molecule, the “YFP fluorescence quenching using Varenicline” value (300 nM var, second column) was 79.998, the “YFP fluorescence quenching using Varenicline” value (500 nM var, first column) was 80.691 and the “YFP fluorescence quenching using Varenicline” value (500 nM var, second column) was 80.309. For the same molecule, the “YFP fluorescence quenching using CNL001” value (1 uM CNL001, first column) was 81.96%, the “YFP fluorescence quenching using CNL001” value (1 uM CNL001, second column) was 81.773% and the “YFP fluorescence quenching using CNL002” value (1 uM CNL002) was 80.18%. The “YFP fluorescence quenching using ABT-126” value (1 uM abt) was 65.99%, the “YFP fluorescence quenching using TC-6987” value (1 uM tc6987) was 79.06 and the “YFP fluorescence quenching using Varenicline” value (1 uM var, first column) was 80.258. The “YFP fluorescence quenching using Varenicline” value (1 uM var, second column) was 79.509, the “YFP fluorescence quenching using TC-6987” value (10 uM tc6987) was 82.36 and the “YFP fluorescence quenching using CNL002” value (30 uM CNL002) was 80.93%. For the same molecule, the “YFP fluorescence quenching using AZD-0328” value (30 uM azd0328) was 82.32%, the “YFP fluorescence quenching using Facinicline” value (30 uM fac) was 82.82 and the “YFP fluorescence quenching using TC-6987” value (500 uM tc6987) was 80.19. The “percent quench of YFP fluorescence, 30 nM TC-6683” value (TC-6683 30 nM) was −11.51%, the “percent quench of YFP fluorescence, 300 nM TC-6683” value (TC-6683 300 nM) was −13.17% and the “percent quench of YFP fluorescence, 3 uM TC-6683” value (TC-6683 3 uM) was −5.46%. For the same molecule, the “percent quench of YFP fluorescence, 30 uM TC-6683” value (TC-6683 30 uM) was 8.53%, the “percent quench of YFP fluorescence, 100 uM TC-6683” value (TC-6683 100 uM) was 14.41% and the “percent quench of YFP fluorescence, 10 uM ach” value (acetylcholine 10 uM) was 28.32%. For the same molecule, the “percent quench of YFP fluorescence, 100 uM ach” value (acetylcholine 100 uM) was 81.8%, the “percent quench of YFP fluorescence, 1 mM ach” value (acetylcholine 1 mM) was 71.22% and the “percent quench of YFP fluorescence, 3 mM ach” value (acetylcholine 3 mM) was 73.7%.
